Data reported in patent US12692303.

What was measured:
[1] = target: Natural IL-23 (human) (UniProt Q9NPF7); test: binding ELISA, antibody coated at 1 µg/ml, IL-23 titrated, anti-His detection
[2] = target: Human interleukin 23 (hIL-23) (human) (UniProt Q9NPF7); test: cell-based or functional assay
[3] = target: Human interleukin 23 (hIL-23) (human) (UniProt Q9NPF7); test: SPR, Biacore T200, antibody captured on Protein A chip, IL-23 in flow, 25 °C, 1:1 model

Chain of Human interleukin 23 (hIL-23) (human) (Q9NPF7 20-189 limits assumed, chain 1 of 2): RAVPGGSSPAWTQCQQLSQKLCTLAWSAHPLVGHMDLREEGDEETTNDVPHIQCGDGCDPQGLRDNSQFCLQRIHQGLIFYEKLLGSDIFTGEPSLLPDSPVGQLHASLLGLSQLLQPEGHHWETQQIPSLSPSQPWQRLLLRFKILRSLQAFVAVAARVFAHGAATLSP
Chain of Human interleukin 23 (hIL-23) (human) (chain, as listed by the source limits assumed, chain 2 of 2): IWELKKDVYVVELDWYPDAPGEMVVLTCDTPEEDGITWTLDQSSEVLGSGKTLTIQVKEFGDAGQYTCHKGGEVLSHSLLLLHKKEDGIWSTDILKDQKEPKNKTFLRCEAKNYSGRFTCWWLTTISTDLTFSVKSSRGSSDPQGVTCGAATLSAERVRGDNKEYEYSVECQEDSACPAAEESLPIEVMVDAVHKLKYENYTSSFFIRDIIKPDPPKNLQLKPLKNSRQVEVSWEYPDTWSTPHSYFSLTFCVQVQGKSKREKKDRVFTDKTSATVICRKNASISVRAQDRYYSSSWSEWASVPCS
Chain of Natural IL-23 (human) (Q9NPF7 20-189 limits assumed, chain 1 of 2): as the sequence (Q9NPF7 20-189 limits assumed, chain 1 of 2) above
Chain of Natural IL-23 (human) (chain, as listed by the source limits assumed, chain 2 of 2): as the sequence (chain, as listed by the source limits assumed, chain 2 of 2) above

EC50 [1]: 1.8 ng/mL | IC50, inhibition of phosphorylation of STAT3 in HEK Blue IL-23 cells induced by IL-23 [2]: 3.51 ng/mL | IC50, inhibition of release of IFN-γ from human NK cells induced by IL-23 [2]: 11.1 ng/mL | IC50, inhibition of release of IL-17A from mouse spleen cells induced by IL-23 [2]: 8.43 ng/mL | Kd [3]: 0.052 nM | koff [3]: 3.7e-05 s⁻¹ | kon [3]: 706000 M⁻¹ s⁻¹
B1: Risankizumab (antibody, INN chains, looked up, V domains shown)
VH: QVQLVQSGAEVKKPGSSVKVSCKASGYTFTDQTIHWMRQAPGQGLEWIGYIYPRDDSPKYNENFKGKVTITADKSTSTAYMELSSLRSEDTAVYYCAIPDRSGYAWFIYWGQGTLVTVSS
VL: DIQMTQSPSSLSASVGDRVTITCKASRDVAIAVAWYQQKPGKVPKLLIYWASTRHTGVPSRFSGSGSRTDFTLTISSLQPEDVADYFCHQYSSYPFTFGSGTKLEIKR
